PMC6746995, “Nanomechanics of tip-link cadherins” (Scientific Reports, 2019)

Target: the molecule itself
Experiment: AFM imaging + single-molecule force spectroscopy (AFM-SMFS); purified ectodomains in 50 mM TrisHCl/150 mM NaCl/1 mM CaCl2 pH 7.5; imaging on freshly cleaved mica, tapping mode in liquid; SMFS on NTA-Ni2+ coverslips through the His tags, differing persistence length across a trace taken as two cadherins stretched in parallel

B1: His-tagged full murine PCDH15 ectodomain (domain or fragment)
chain: not shown
notes: protocadherin 15 (PCDH15), murine, full ectodomain (11 EC domains), UniProtKB Q99PJ1; also called protocadherin 15; full-length PCDH15 ectodomain; not shown: His tag, C-terminal, kept
  binding result: binds
